In PMC8990217, “DUX4 is a multifunctional factor priming human embryonic genome activation” (iScience, 2022) one finds Kd data, which are given here for two molecules.

Assay [1] addresses T1, human KIX domain of CBP (residues 587-673) with 36 extra N-terminal residues (human, UniProt Q92793 587-673, RED-tris-NTA dye bound non-covalently to the His tag).
T1 construct: synthetic codon-optimised gene in pET100/TOPO; construct 14.5 kDa; no cleavage is described; also called His-tagged KIX domain; source: E. coli BL21 DE3, purified (Histrap HP, Resource Q, Superdex 75); not shown: His6, N-terminal, kept
The experiment in a line: MST; His-tagged KIX labelled with RED-tris-NTA, 20 nM; peptide varied; PBS-Tween (pH 7.4; 0.05% v/v Tween 20); Monolith NT. As to conditions: both partners purified.

The target in assay [2] is T1, human KIX domain of CBP (residues …). The experiment in a line: MST; as a1, KBM peptide binding to labelled KIX in the presence of the 9aaTAD peptide (its concentration not told). The note with it: both partners purified.

T1 sequence (Q92793 587-673): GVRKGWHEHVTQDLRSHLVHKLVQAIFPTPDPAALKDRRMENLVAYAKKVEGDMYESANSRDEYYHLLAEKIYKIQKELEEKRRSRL

B1: DUX4 9aaTAD peptide for binding analysis (peptide)
peptide: CGLLLDELLASPEFLQQ
notes: source: synthetic peptide, bought: GenScript
With B1, the Kd in assay [1] is around 0.2 µM.

B2: DUX4 KBM peptide for binding analysis (peptide)
peptide: EEEYRALLEE
notes: as for B1
As to B2, the Kd is around 0.6 µM in assay [1] and around 1.1 µM in assay [2].
